In assay [1] the target is Frizzled (FZD) on the cell surface of pancreatic cancer cell lines. Description: flow cytometry, YAPC cells transfected with pGL2 siRNA (control). On the technique in general: In flow cytometry, cells or beads pass a laser one at a time.
For assay [2] the target is unchanged. Nature of the assay: flow cytometry, PaTu-8988S cells, pGL2 siRNA.
Assay [3] shares this target. Nature of the assay: flow cytometry, HPAFII cells, pGL2 siRNA.
The target is the same in assay [4]. Nature of the assay: flow cytometry, PK1 cells, RNF43 siRNA.
For assay [5] the target is unchanged. Nature of the assay: flow cytometry, Capan-2 cells, pGL2 siRNA.
For assay [6] the target is unchanged. Nature of the assay: flow cytometry, YAPC cells treated with 3 uM IWP-2.
For assay [7] the target is unchanged. Nature of the assay: flow cytometry, YAPC cells stably expressing empty vector (EV).
Assay [8] has the same target. Description: flow cytometry, PK1 cells, pGL2 siRNA.
Assay [9] shares this target. Description: flow cytometry, HPAFII cells, RNF43 siRNA.
The target is the same in assay [10]. Description: flow cytometry, YAPC cells stably expressing RNF43 deltaRING.
Assay [11] shares this target. Nature of the assay: flow cytometry, PaTu-8988S cells, RNF43 siRNA.
Assay [12] shares this target. Nature of the assay: flow cytometry, YAPC cells treated with DMSO.
Assay [13] shares this target. Description: flow cytometry, YAPC cells transfected with beta-catenin siRNA#2.
Assay [14] shares this target. Description: flow cytometry, YAPC cells, pGL2 siRNA.
Assay [15] shares this target. Description: flow cytometry, YAPC cells transfected with beta-catenin siRNA#1.
Assay [16] shares this target. Nature of the assay: flow cytometry, YAPC cells, RNF43 siRNA.
The target is the same in assay [17]. Nature of the assay: flow cytometry, YAPC cells stably expressing wild-type RNF43.
Assay [18] has the same target. Nature of the assay: flow cytometry, Capan-2 cells, RNF43 siRNA.
For assay [19] the target is unchanged. Nature of the assay: flow cytometry, YAPC cells treated with 1 uM LGK974.
Assay [20] has the same target. Nature of the assay: flow cytometry, YAPC cells transfected with pGL2 siRNA (control), 18R5 + APC anti-human IgG.
Assay [21] shares this target. Description: flow cytometry, YAPC cells stably expressing RNF43 F69C.
Assay [22] shares this target. Nature of the assay: flow cytometry, YAPC cells transfected with RNF43 siRNA#1, 18R5 + APC anti-human IgG.
Assay [23] shares this target. Nature of the assay: flow cytometry, YAPC cells transfected with RNF43 siRNA#2, 18R5 + APC anti-human IgG.

B1: pan-Frizzled antibody 18R5 (antibody, INN chains, looked up, V domains shown)
VH: EVQLVESGGGLVQPGGSLRLSCAASGFTFSHYTLSWVRQAPGKGLEWVSVISGDGSYTYYADSVKGRFTISSDNSKNTLYLQMNSLRAEDTAVYYCARNFIKYVFANWGQGTLVTVSS
VL: DIELTQPPSVSVAPGQTARISCSGDNIGSFYVHWYQQKPGQAPVLVIYDKSNRPSGIPERFSGSNSGNTATLTISGTQAEDEADYYCQSYANTLSLVFGGGTKLTVL
Consider B1, for which the Median FZD intensity in FACS was found to be 137 in [1]; 1750 in assay [6]; 721 in [12]; 561 in assay [13]; 530 in [15]; 1370 in assay [19]. Besides, the Median FZD intensity in FACS in assay [20] stood at 237; in [22] it was 1500; in assay [23], 1750. For the same molecule, the Mean FZD intensity in FACS was 293 in [2]; 375 in [3]; 923 in [4]; 2440 in assay [5]; 473 in assay [8]; 402 in [9]. The Mean FZD intensity in FACS in assay [11] is 245; in assay [14], 353; in [16], 1220; in [18] it was 2640. Moreover, the membrane Frizzled intensity in flow cytometry (RNF43 re-expression) came out at 1040 in assay [7], 2000 in assay [10], 686 in [17] and 1500 in assay [21].

These data come from patent publication US20150125857A1.
